Test results reported in PMC4751435 (2016).

Key:
Assay in all cases: BRET
luciferase-FOXP1 = luciferase-FOXP1 (UniProt Q9H334); conditions: HEK293 cells, n = 3, read off a plot
[1] = target: luciferase-FOXP2 (wild-type, full-length 1-715) (UniProt O15409); conditions: HEK293 cells, n = 3, read off a plot
[2] = target: luciferase-FOXP2 (wild-type, full-length 1-715) (UniProt O15409); conditions: HEK293 cells, n = 3, read off a plot; remark: listed apart in the source
[3] = target: YFP-SUMO1 alanine mutant (AA), P63165-1; conditions: HEK293 cells; n = 3; control donor (nuclear-targeted luciferase) est. 0.005; parent: est. 0.15; read off a plot
YFP-SUMO1 alanine mutant (AA), P63165-1, sequence (P63165 1-97, change not shown): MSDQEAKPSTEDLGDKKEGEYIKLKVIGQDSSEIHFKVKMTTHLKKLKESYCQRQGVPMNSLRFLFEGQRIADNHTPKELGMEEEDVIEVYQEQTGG

[4] = target: YFP-SUMO1 alanine mutant (AA), P63165-1; conditions: HEK293 cells; n = 3; control donor (nuclear-targeted luciferase) est. 0.004; parent: est. 0.15; read off a plot
[5] = target: YFP-SUMO2 alanine mutant (AA), P61956-1; conditions: HEK293 cells; n = 3; control donor (nuclear-targeted luciferase) est. 0.028; parent: est. 0.20; read off a plot
[6] = target: YFP-SUMO2 alanine mutant (AA), P61956-1; conditions: HEK293 cells; n = 3; control donor (nuclear-targeted luciferase) est. 0.028; parent: est. 0.20; read off a plot; remark: listed apart in the source
[7] = target: YFP-SUMO3 alanine mutant (AA), P55854-2; conditions: HEK293 cells; n = 3; control donor (nuclear-targeted luciferase) est. 0.034; parent: est. 0.23; read off a plot
YFP-SUMO3 alanine mutant (AA), P55854-2, sequence (P55854 other isoform, or with tags, fused parts or gaps, change not shown): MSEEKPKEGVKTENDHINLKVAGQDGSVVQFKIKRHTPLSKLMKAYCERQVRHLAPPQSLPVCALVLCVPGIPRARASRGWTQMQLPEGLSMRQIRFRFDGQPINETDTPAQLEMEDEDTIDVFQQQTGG

[8] = target: YFP-SUMO3 alanine mutant (AA), P55854-2; conditions: HEK293 cells; n = 3; control donor (nuclear-targeted luciferase) est. 0.034; parent: est. 0.23; read off a plot; remark: listed apart in the source
[9] = control donor (nuclear-targeted luciferase) est. 0.028, parent: est. 0.20
[10] = control donor (nuclear-targeted luciferase) est. 0.034, parent: est. 0.23

Which results are given for “YFP-SUMO1 (wild-type, GG) (from UniProt P63165-1) AA”?
response (luciferase-FOXP1; control donor (nuclear-targeted luciferase) est. 0.000, parent: est. 0.15): -0.043 BRET ratio; response ([1]; control donor (nuclear-targeted luciferase) est. 0.000, parent: est. 0.077): -0.017 BRET ratio; response ([1]; control donor (nuclear-targeted luciferase) est. 0.005, parent: est. 0.15): 0.019 BRET ratio; response ([2]; control donor (nuclear-targeted luciferase) est. 0.004, parent: est. 0.15): 0.019 BRET ratio

For “YFP-SUMO2 (wild-type, GG) (from UniProt P61956-1) AA”, which response (luciferase-FOXP1; control donor (nuclear-targeted luciferase) est. 0.012, parent: est. 0.19) is on record?
The response was -0.036 BRET ratio.

And the response ([1]; control donor (nuclear-targeted luciferase) est. 0.012, parent: est. 0.13)?
The response was 0.005 BRET ratio.

And the response [1, 9]?
Its response is 0.032 BRET ratio.

What about the response [2, 9] of the same substance?
Its response is 0.032 BRET ratio.

Which response (luciferase-FOXP1; control donor (nuclear-targeted luciferase) est. 0.015, parent: est. 0.20) does the source give for “YFP-SUMO3 (wild-type, GG) (from UniProt P55854) AA” here?
Its response is -0.035 BRET ratio.

What about the response ([1]; control donor (nuclear-targeted luciferase) est. 0.015, parent: est. 0.15) of the same substance?
The response was 0.012 BRET ratio.

And the response [1, 10]?
Its response is 0.065 BRET ratio.

And the response [2, 10]?
The response was 0.065 BRET ratio.

m1; m10 FOXP2:K674R; SUMO1:AA was tested. Which response [3] did it give?
Its response is 0.012 BRET ratio.

m1; m10 FOXP2:R553H; SUMO1:AA was tested. Which response [4] did it give?
The response was 0.008 BRET ratio.

With m1; m11 FOXP2:K674R; SUMO2:AA as the substance, how does the response [5] read?
Its response is 0.021 BRET ratio.

With m1; m11 FOXP2:R553H; SUMO2:AA as the substance, how does the response [6] read?
The response was 0.048 BRET ratio.

For m1; m12 FOXP2:K674R; SUMO3:AA, which response [7] is on record?
Its response is 0.043 BRET ratio.

For m1; m12 FOXP2:R553H; SUMO3:AA, which response [8] is on record?
The response was 0.027 BRET ratio.
